Target: endogenous human tissue factor on MDA-MB-231 breast cancer cells (Homo sapiens (MDA-MB-231 cells), UniProt P13726)
Experiment: flow cytometry on cells

Sequence of endogenous human tissue factor on MDA-MB-231 breast cancer cells (P13726 33-295): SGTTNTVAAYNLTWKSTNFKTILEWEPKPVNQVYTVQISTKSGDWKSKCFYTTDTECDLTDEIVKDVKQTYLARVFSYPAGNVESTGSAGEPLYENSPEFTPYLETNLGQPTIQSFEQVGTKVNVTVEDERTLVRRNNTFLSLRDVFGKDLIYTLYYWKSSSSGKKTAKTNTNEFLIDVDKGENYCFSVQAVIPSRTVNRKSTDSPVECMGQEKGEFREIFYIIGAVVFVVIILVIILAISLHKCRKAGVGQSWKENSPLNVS

- cell binding (% to 10H10): 100%
B1: chimeric mouse/human version of 10H10 mAb (antibody, V domains shown)
VH: QVHLQQSGAELMKPGASVKISCKASGYTFITYWIEWVKQRPGHGLEWIGDILPGSGSTNYNENFKGKATFTADSSSNTAYMQLSSLTSEDSAVYYCARSGYYGNSGFAYWGQGTLVTVSA
VL: DIVMTQSPSSLTVTAGEKVTMSCKSSQSLLSSGNQKNYLTWYQQIPGQPPKLLIYWASTRESGVPDRFTGSGSGTDFTLTINSVQAEDLAVYYCQNDYTYPLTFGAGTKLELK
